Measured values from patent publication US20210340548A1.

B1: TetR (I194T, 1-206)-CIB1 (-NLS) fusion construct as released from the TetR (I194T, 1-206)-CIB1 (-NLS)-T2A-Cry2 PHR (L348F)-p65AD-NLSx2 fusion construct (protein, part only)
chain: MARLDKSKVINSALELLNEVGIEGLTTRKLAQKLGVEQPTLYWHVKNKRALLDALAIEMLDRHHTHFCPLEGESWQDFLRNNAKSFRCALLSHRDGAKVHLGTRPTEKQYETLENQLAFLCQQGFSLENALYALSAVGHFTLGCVLEDQEHQVAKEERETPTTDSMPPLLRQAIELFDHQGAEPAFLFGLELITCGLEKQLKCESGSPKKKHMEFNGAIGGDLLLNFPDMSVLERQRAHLKYLNPTFDSPLAGFFADSSMITGGEMDSYLSTAGLNLPMMYGETTVEGDSRLSISPETTLGTGNFKAAKFDTETKDCNEAAKKMTMNRDDLVEEGEEEKSKITEQNNGSTKSIKKMKHKAKKEENNFSNDSSKVTKELEKTDYI
modifications: residual T2A residues at C-terminus
B2: rTetR (I194T, rtTA mutation, 1-206)-CIB1 (-NLS) from the T2A construct (protein, part only; not given: Leftover T2A residues, part only)
chain, part: MARLDKSKVINSALELLNEVGIEGLTTRKLAQKLGVEQPTLYWHVKNKRALLDALAIEMLDRHHTHFCPLKGESWQDFLRNNAKSFRCALLSHRNGAKVHSDTRPTEKQYETLENQLAFLCQQGFSLENALYALSAVGHFTLGCVLEDQEHQVAKEERETPTTDSMPPLLRQAIELFDHQGAEPAFLFGLELITCGLEKQLKCESGSPKKKHMEFNGAIGGDLLLNFPDMSVLERQRAHLKYLNPTFDSPLAGFFADSSMITGGEMDSYLSTAGLNLPMMYGETTVEGDSRLSISPETTLGTGNFKAAKFDTETKDCNEAAKKMTMNRDDLVEEGEEEKSKITEQNNGSTKSIKKMKHKAKKEENNFSNDSSKVTKELEKTDYI
B3: rTetR (I194T, S2 mutation, 1-206)-CIB1 (-NLS) from the T2A construct (protein, part only; not given: Leftover T2A residues, part only)
chain, part: MARLDKSKVINSALELLNGVGIEGLTTRKLAQKLGVEQPTLYWHVKNKRALLDALPIEMLDRHHTHFCPLEGESWQDFLRNNAKSFRCALLSHRDGAKVHLGTRPTEKQYETLENQLAFLCQQGFSLENALYALSAVGHFTLGCVLEEQEHQVAKEERETPTTDSMPPLLRQAIELFDRQGAEPAFLFGLELITCGLEKQLKCESGSPKKKHMEFNGAIGGDLLLNFPDMSVLERQRAHLKYLNPTFDSPLAGFFADSSMITGGEMDSYLSTAGLNLPMMYGETTVEGDSRLSISPETTLGTGNFKAAKFDTETKDCNEAAKKMTMNRDDLVEEGEEEKSKITEQNNGSTKSIKKMKHKAKKEENNFSNDSSKVTKELEKTDYI

These binders were tested against Cry2 PHR (L348F)-p65AD-NLSx2 fusion construct as released from the TetR (I194T, 1-206)-CIB1 (-NLS)-T2A-Cry2 PHR (L348F)-p65AD-NLSx2 fusion construct (assay: cell-based or functional assay).
Chain of Cry2 PHR (L348F)-p65AD-NLSx2 fusion construct as released from the TetR (I194T, 1-206)-CIB1 (-NLS)-T2A-Cry2 PHR (L348F)-p65AD-NLSx2 fusion construct (Q96524 other isoform, or with tags, fused parts or gaps L348F I194T L348F L348F I194T L348F): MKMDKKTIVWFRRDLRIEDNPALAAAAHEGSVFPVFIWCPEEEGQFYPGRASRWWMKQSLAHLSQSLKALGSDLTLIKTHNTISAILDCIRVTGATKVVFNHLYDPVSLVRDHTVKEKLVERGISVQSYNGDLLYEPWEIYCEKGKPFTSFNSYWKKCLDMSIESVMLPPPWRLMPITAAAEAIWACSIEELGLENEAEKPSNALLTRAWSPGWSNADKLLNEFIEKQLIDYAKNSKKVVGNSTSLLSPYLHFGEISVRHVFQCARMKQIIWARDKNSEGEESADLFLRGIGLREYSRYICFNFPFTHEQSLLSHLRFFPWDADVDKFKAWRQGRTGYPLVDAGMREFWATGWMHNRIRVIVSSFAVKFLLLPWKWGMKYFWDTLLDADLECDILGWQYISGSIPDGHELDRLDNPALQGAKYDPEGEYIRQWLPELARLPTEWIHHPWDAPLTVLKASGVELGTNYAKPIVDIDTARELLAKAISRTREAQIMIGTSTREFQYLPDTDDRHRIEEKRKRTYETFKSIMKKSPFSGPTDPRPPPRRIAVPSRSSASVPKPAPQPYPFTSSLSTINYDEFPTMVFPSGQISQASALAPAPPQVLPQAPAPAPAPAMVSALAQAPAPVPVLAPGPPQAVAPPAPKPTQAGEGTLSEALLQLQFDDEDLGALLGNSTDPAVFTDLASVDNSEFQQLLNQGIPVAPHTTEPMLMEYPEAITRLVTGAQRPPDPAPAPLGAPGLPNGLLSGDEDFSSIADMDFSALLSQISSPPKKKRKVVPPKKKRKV
B1 was tested, and the Average of the Light/Dark ratio, Dox 0 ng/mL was 19, the Average of the Light/Dark ratio, Dox 0 ng/mL, 36 h light was 2780 and the Average of the Light/Dark ratio, Dox 75 ng/mL was 1.1. It also gave an Average of the Light/Dark ratio, Dox 500 ng/mL, 36 h light of 0.2, a Light/Dark, Dox 0 ng/mL of 36.2 and a Light/Dark, Dox 0 ng/mL, 36 h light of 525. For the same binder, the Light/Dark, Dox 75 ng/mL was 0.9, the Light/Dark, Dox 500 ng/mL, 36 h light was 0.2 and the Ub-ELuc luciferase, Dark, Dox 0 ng/mL was 4 relative. The Ub-ELuc luciferase, Dark, Dox 0 ng/mL, 36 h light was 15.4 relative, the Ub-ELuc luciferase, Dark, Dox 75 ng/mL was 0.1 relative and the Ub-ELuc luciferase, Dark, Dox 500 ng/mL, 36 h light was 9.9 relative. For the same binder, the Ub-ELuc luciferase, Light, Dox 0 ng/mL was 76.7 relative, the Ub-ELuc luciferase, Light, Dox 0 ng/mL, 36 h light was 8090 relative and the Ub-ELuc luciferase, Light, Dox 75 ng/mL was 0.1 relative. For the same binder, the Ub-ELuc luciferase, Light, Dox 500 ng/mL, 36 h light was 1.8 relative.
For B2, the Average of the Light/Dark ratio, Dox 0 ng/mL was 3.2, the Average of the Light/Dark ratio, Dox 75 ng/mL was 22.5 and the Light/Dark, Dox 0 ng/mL was 3.5. The Light/Dark, Dox 75 ng/mL was 3.4, the Ub-ELuc luciferase, Dark, Dox 0 ng/mL was 0.2 relative and the Ub-ELuc luciferase, Dark, Dox 75 ng/mL was 0.1 relative. The Ub-ELuc luciferase, Light, Dox 0 ng/mL was 0.5 relative and the Ub-ELuc luciferase, Light, Dox 75 ng/mL was 0.4 relative.
In the case of B3, the Average of the Light/Dark ratio, Dox 0 ng/mL is reported as 2.2, the Average of the Light/Dark ratio, Dox 75 ng/mL is reported as 17 and the Light/Dark, Dox 0 ng/mL is reported as 3.1. The Light/Dark, Dox 75 ng/mL was 3.1, the Ub-ELuc luciferase, Dark, Dox 0 ng/mL was 0.2 relative and the Ub-ELuc luciferase, Dark, Dox 75 ng/mL was 0.2 relative. The Ub-ELuc luciferase, Light, Dox 0 ng/mL was 0.5 relative and the Ub-ELuc luciferase, Light, Dox 75 ng/mL was 0.7 relative.
